One assay has as its target T1, PDGF-BB (human, UniProt P01127 82-190, limits assumed).
T1 construct: also called human PDGF-BB; hPDGF-BB
Nature of the assay: Biacore SPR; DVD-Ig captured on anti-human Fc, antigen injected. The protocol:
(§1) For example, approximately 9000 RU of goat anti-human Fc specific polyclonal antibody (Thermo Fisher Scientific Inc., Rockford, Ill.) diluted in 10 mM sodium acetate (pH 4.5) is directly immobilized across a CM5 research grade biosensor chip using a standard amine coupling kit according to manufacturer's instructions and procedures at 25 μg/ml. Unreacted moieties on the biosensor surface were blocked with ethanolamine. For kinetic analysis, rate equations derived from the 1:1 Langmuir binding model were fitted simultaneously to multiple antigen injections (using global fit analysis) with the use of Scrubber 2 (BioLogic Software), Biacore Biaevaluation 4.0.1 software or Biacore T100 Evaluation software. Purified antibodies or DVD-Ig molecules were diluted in running buffer for capture across goat anti-human Fc reaction surfaces. Antibodies or DVD-Ig molecules to be captured as a ligand (1 μg/ml) were injected over reaction matrices at a flow rate of 10 μl/minute. During the assay, all measurements were referenced against the capture surface alone (i.e., with no captured antibody or DVD-Ig molecule). […] The equilibrium dissociation constant KD (M) of the reaction between antibodies and the target antigen was then calculated from the kinetic rate constants by the following formula: KD=Koff/Kₒₙ. Binding was recorded as a function of time and kinetic rate constants were calculated.

A further assay deals with T2, VEGF-A (human, UniProt P15692 207-395).
T2 construct: also called hVEGF165
T2 sequence (P15692 other isoform, or with tags, fused parts or gaps limits assumed): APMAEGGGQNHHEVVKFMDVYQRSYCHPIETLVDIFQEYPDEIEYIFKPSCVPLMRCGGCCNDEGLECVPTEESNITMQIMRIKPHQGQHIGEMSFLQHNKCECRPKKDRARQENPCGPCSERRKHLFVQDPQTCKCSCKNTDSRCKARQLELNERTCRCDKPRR
The assay is described as above. The protocol:
as §1

T1 sequence (P01127 82-190 limits assumed): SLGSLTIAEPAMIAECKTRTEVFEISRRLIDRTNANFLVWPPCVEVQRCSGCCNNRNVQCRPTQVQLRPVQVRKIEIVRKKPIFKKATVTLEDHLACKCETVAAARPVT

B1: 4G8.3-GS-9E8.4E (PR-1575832) (bispecific antibody, human IgG1, kappa, L234A L235A)
heavy: EVQLVQSGSELKKPGASVKVSCKASGYTFTNYGMYWVRQAPGQGLEWMGWINTETGKPTYADDFKGRFVFSLDTSVSTAYLQISSLKAEDTAVYYCARTNYYYRSYIFYFDYWGQGTMVTVSSGGGGSGGGGSEVTLRESGPALVKPTQTLTLTCTFSGFSLSTYGMGVGWIRQPPGKALEWLANIWWDDDKYYNPSLKNRLTISKDTSKNQVVLTMTNMDPVDTATYYCARIESIGTTYSFDYWGQGTMVTVSSASTKGPSVFPLAPSSKSTSGGTAALGCLVKDYFPEPVTVSWNSGALTSGVHTFPAVLQSSGLYSLSSVVTVPSSSLGTQTYICNVNHKPSNTKVDKKVEPKSCDKTHTCPPCPAPEAAGGPSVFLFPPKPKDTLMISRTPEVTCVVVDVSHEDPEVKFNWYVDGVEVHNAKTKPREEQYNSTYRVVSVLTVLHQDWLNGKEYKCKVSNKALPAPIEKTISKAKGQPREPQVYTLPPSREEMTKNQVSLTCLVKGFYPSDIAVEWESNGQPENNYKTTPPVLDSDGSFFLYSKLTVDKSRWQQGNVFSCSVMHEALHNAYTQKSLSLSPGK
light: DTVLTQSPATLSLSPGERATLSCRASESVSTHMHWYQQKPGQAPRLLIYGASNLESGVPARFSGSGSGTDFTLTISSLEPEDFAVYFCQQSWNDPFTFGQGTKLEIKRGGSGGGGSGEFVLTQSPGTLSLSPGERATLSCERSSGDIGESYVSWYQQKPGQAPRLVIYADDQRPSGIPDRFSGSGSGTDFTLTISRLEPEDFAVYYCQSYDINIDIVFGGGTKVEIKRTVAAPSVFIFPPSDEQLKSGTASVVCLLNNFYPREAKVQWKVDNALQSGNSQESVTEQDSKDSTYSLSSTLTLSKADYEKHKVYACEVTHQGLSSPVTKSFNRGEC
notes: DVD-Ig: outer hBDB-4G8.3 (VEGF), inner hBDI-9E8.4E (PDGF), linkers GS-H10/GS-L10; Human IgG1 L234A, L235A, H435A with kappa
In the case of B1, in the assay with PDGF-BB, binding was characterised by a dissociation constant (Kd) of 0.02 nM and the association rate constant (kon) stood at 1.3e+07 M⁻¹ s⁻¹. In the assay with VEGF-A, the dissociation constant Kd worked out at 0.013 nM and the kon is 6.1e+06 M⁻¹ s⁻¹.

B2: 4G8.3-SL-9E8.4E (PR-1575834) (bispecific antibody, human IgG1, kappa, L234A L235A)
heavy: EVQLVQSGSELKKPGASVKVSCKASGYTFTNYGMYWVRQAPGQGLEWMGWINTETGKPTYADDFKGRFVFSLDTSVSTAYLQISSLKAEDTAVYYCARTNYYYRSYIFYFDYWGQGTMVTVSSASTKGPEVTLRESGPALVKPTQTLTLTCTFSGFSLSTYGMGVGWIRQPPGKALEWLANIWWDDDKYYNPSLKNRLTISKDTSKNQVVLTMTNMDPVDTATYYCARIESIGTTYSFDYWGQGTMVTVSSASTKGPSVFPLAPSSKSTSGGTAALGCLVKDYFPEPVTVSWNSGALTSGVHTFPAVLQSSGLYSLSSVVTVPSSSLGTQTYICNVNHKPSNTKVDKKVEPKSCDKTHTCPPCPAPEAAGGPSVFLFPPKPKDTLMISRTPEVTCVVVDVSHEDPEVKFNWYVDGVEVHNAKTKPREEQYNSTYRVVSVLTVLHQDWLNGKEYKCKVSNKALPAPIEKTISKAKGQPREPQVYTLPPSREEMTKNQVSLTCLVKGFYPSDIAVEWESNGQPENNYKTTPPVLDSDGSFFLYSKLTVDKSRWQQGNVFSCSVMHEALHNAYTQKSLSLSPGK
light: DTVLTQSPATLSLSPGERATLSCRASESVSTHMHWYQQKPGQAPRLLIYGASNLESGVPARFSGSGSGTDFTLTISSLEPEDFAVYFCQQSWNDPFTFGQGTKLEIKRTVAAPSVFIFPPEFVLTQSPGTLSLSPGERATLSCERSSGDIGESYVSWYQQKPGQAPRLVIYADDQRPSGIPDRFSGSGSGTDFTLTISRLEPEDFAVYYCQSYDINIDIVFGGGTKVEIKRTVAAPSVFIFPPSDEQLKSGTASVVCLLNNFYPREAKVQWKVDNALQSGNSQESVTEQDSKDSTYSLSSTLTLSKADYEKHKVYACEVTHQGLSSPVTKSFNRGEC
notes: DVD-Ig: outer hBDB-4G8.3 (VEGF), inner hBDI-9E8.4E (PDGF), linkers HG-short/LK-long; Human IgG1 L234A, L235A, H435A with kappa
In the assay with PDGF-BB, B2 gave a dissociation constant Kd of 0.015 nM and an association rate constant (kon) of 1.7e+07 M⁻¹ s⁻¹. In the assay with VEGF-A, this molecule registered a Kd of 0.01 nM and a kon of 6.2e+06 M⁻¹ s⁻¹.

B3: 9A8.12-LS-9E8.4E (PR-1577547) (bispecific antibody, human IgG1, kappa, L234A L235A)
heavy: EVQLVQSGAEVKKPGASVKVSCKASGYTFTNYGMYWVRQAPGQGLEWMGWINTETGKPIYADDFKGRVTMTTDTSTSTAYMELRSLRSDDTAVYYCARVDYDGSFWFAYWGQGTLVTVSSASTKGPSVFPLAPEVTLRESGPALVKPTQTLTLTCTFSGFSLSTYGMGVGWIRQPPGKALEWLANIWWDDDKYYNPSLKNRLTISKDTSKNQVVLTMTNMDPVDTATYYCARIESIGTTYSFDYWGQGTMVTVSSASTKGPSVFPLAPSSKSTSGGTAALGCLVKDYFPEPVTVSWNSGALTSGVHTFPAVLQSSGLYSLSSVVTVPSSSLGTQTYICNVNHKPSNTKVDKKVEPKSCDKTHTCPPCPAPEAAGGPSVFLFPPKPKDTLMISRTPEVTCVVVDVSHEDPEVKFNWYVDGVEVHNAKTKPREEQYNSTYRVVSVLTVLHQDWLNGKEYKCKVSNKALPAPIEKTISKAKGQPREPQVYTLPPSREEMTKNQVSLTCLVKGFYPSDIAVEWESNGQPENNYKTTPPVLDSDGSFFLYSKLTVDKSRWQQGNVFSCSVMHEALHNAYTQKSLSLSPGK
light: DTQLTQSPSSLSASVGDRVTITCRASESVSTVIHWYQQKPGKQPKLLIHGASNLESGVPSRFSGSGSGTDFTLTISSLQPEDFATYFCQQHWNDPPTFGQGTKLEIKRTVAAPEFVLTQSPGTLSLSPGERATLSCERSSGDIGESYVSWYQQKPGQAPRLVIYADDQRPSGIPDRFSGSGSGTDFTLTISRLEPEDFAVYYCQSYDINIDIVFGGGTKVEIKRTVAAPSVFIFPPSDEQLKSGTASVVCLLNNFYPREAKVQWKVDNALQSGNSQESVTEQDSKDSTYSLSSTLTLSKADYEKHKVYACEVTHQGLSSPVTKSFNRGEC
notes: DVD-Ig: outer hBEW-9A8.12 (VEGF), inner hBDI-9E8.4E (PDGF), linkers HG-long/LK-short; Human IgG1 L234A, L235A, H435A with kappa
In the assay with PDGF-BB, B3 gave a Kd of 0.0065 nM and a kon of 3.6e+07 M⁻¹ s⁻¹. In the assay with VEGF-A, this molecule returned a Kd of 0.35 nM and a kon of 270000 M⁻¹ s⁻¹.

B4: 9A8.12-SL-9E8.4E (PR-1577166) (bispecific antibody, human IgG1, kappa, L234A L235A)
heavy: EVQLVQSGAEVKKPGASVKVSCKASGYTFTNYGMYWVRQAPGQGLEWMGWINTETGKPIYADDFKGRVTMTTDTSTSTAYMELRSLRSDDTAVYYCARVDYDGSFWFAYWGQGTLVTVSSASTKGPEVTLRESGPALVKPTQTLTLTCTFSGFSLSTYGMGVGWIRQPPGKALEWLANIWWDDDKYYNPSLKNRLTISKDTSKNQVVLTMTNMDPVDTATYYCARIESIGTTYSFDYWGQGTMVTVSSASTKGPSVFPLAPSSKSTSGGTAALGCLVKDYFPEPVTVSWNSGALTSGVHTFPAVLQSSGLYSLSSVVTVPSSSLGTQTYICNVNHKPSNTKVDKKVEPKSCDKTHTCPPCPAPEAAGGPSVFLFPPKPKDTLMISRTPEVTCVVVDVSHEDPEVKFNWYVDGVEVHNAKTKPREEQYNSTYRVVSVLTVLHQDWLNGKEYKCKVSNKALPAPIEKTISKAKGQPREPQVYTLPPSREEMTKNQVSLTCLVKGFYPSDIAVEWESNGQPENNYKTTPPVLDSDGSFFLYSKLTVDKSRWQQGNVFSCSVMHEALHNAYTQKSLSLSPGK
light: DTQLTQSPSSLSASVGDRVTITCRASESVSTVIHWYQQKPGKQPKLLIHGASNLESGVPSRFSGSGSGTDFTLTISSLQPEDFATYFCQQHWNDPPTFGQGTKLEIKRTVAAPSVFIFPPEFVLTQSPGTLSLSPGERATLSCERSSGDIGESYVSWYQQKPGQAPRLVIYADDQRPSGIPDRFSGSGSGTDFTLTISRLEPEDFAVYYCQSYDINIDIVFGGGTKVEIKRTVAAPSVFIFPPSDEQLKSGTASVVCLLNNFYPREAKVQWKVDNALQSGNSQESVTEQDSKDSTYSLSSTLTLSKADYEKHKVYACEVTHQGLSSPVTKSFNRGEC
notes: DVD-Ig: outer hBEW-9A8.12 (VEGF), inner hBDI-9E8.4E (PDGF), linkers HG-short/LK-long; Human IgG1 L234A, L235A, H435A with kappa
In the assay with PDGF-BB, B4 came in with a Kd of 0.0083 nM and a kon of 2.7e+07 M⁻¹ s⁻¹. In the assay with VEGF-A, this molecule registered an equilibrium dissociation constant (Kd) of 0.47 nM and a kon of 250000 M⁻¹ s⁻¹.

B5: 9A8.12-GS-9E8.4E (PR-1577165) (bispecific antibody, human IgG1, kappa, L234A L235A)
heavy: EVQLVQSGAEVKKPGASVKVSCKASGYTFTNYGMYWVRQAPGQGLEWMGWINTETGKPIYADDFKGRVTMTTDTSTSTAYMELRSLRSDDTAVYYCARVDYDGSFWFAYWGQGTLVTVSSGGGGSGGGGSEVTLRESGPALVKPTQTLTLTCTFSGFSLSTYGMGVGWIRQPPGKALEWLANIWWDDDKYYNPSLKNRLTISKDTSKNQVVLTMTNMDPVDTATYYCARIESIGTTYSFDYWGQGTMVTVSSASTKGPSVFPLAPSSKSTSGGTAALGCLVKDYFPEPVTVSWNSGALTSGVHTFPAVLQSSGLYSLSSVVTVPSSSLGTQTYICNVNHKPSNTKVDKKVEPKSCDKTHTCPPCPAPEAAGGPSVFLFPPKPKDTLMISRTPEVTCVVVDVSHEDPEVKFNWYVDGVEVHNAKTKPREEQYNSTYRVVSVLTVLHQDWLNGKEYKCKVSNKALPAPIEKTISKAKGQPREPQVYTLPPSREEMTKNQVSLTCLVKGFYPSDIAVEWESNGQPENNYKTTPPVLDSDGSFFLYSKLTVDKSRWQQGNVFSCSVMHEALHNAYTQKSLSLSPGK
light: DTQLTQSPSSLSASVGDRVTITCRASESVSTVIHWYQQKPGKQPKLLIHGASNLESGVPSRFSGSGSGTDFTLTISSLQPEDFATYFCQQHWNDPPTFGQGTKLEIKRGGSGGGGSGEFVLTQSPGTLSLSPGERATLSCERSSGDIGESYVSWYQQKPGQAPRLVIYADDQRPSGIPDRFSGSGSGTDFTLTISRLEPEDFAVYYCQSYDINIDIVFGGGTKVEIKRTVAAPSVFIFPPSDEQLKSGTASVVCLLNNFYPREAKVQWKVDNALQSGNSQESVTEQDSKDSTYSLSSTLTLSKADYEKHKVYACEVTHQGLSSPVTKSFNRGEC
notes: DVD-Ig: outer hBEW-9A8.12 (VEGF), inner hBDI-9E8.4E (PDGF), linkers GS-H10/GS-L10; Human IgG1 L234A, L235A, H435A with kappa
Turning to B5, the results for the Kd with PDGF-BB and in the assay with VEGF-A were 0.0081 nM and 0.18 nM, respectively. Also, the kon is 3.3e+07 M⁻¹ s⁻¹ with PDGF-BB and 770000 M⁻¹ s⁻¹ in the assay with VEGF-A.

For the origin of these results see patent US20170015742A1 (published 2017).
